Where a chain is given by its changes, count along the chain named.
How the values were obtained:
human CCR8 [1] = molecular target: T1, human CCR8 (human, UniProt P51685 1-355); experiment: cell-based or functional assay
[2] = molecular target: T2, human CCR8.CCR5 chimera ECL2 (human, UniProt P51681 167-189); experiment: flow cytometry, 293 cells transfected with the CCR8.CCR5 chimera ECL2 with C-terminal FLAG
T2 construct: domain: ECL2; Flanking CCR8 ranges derived from the stated replaced range 172-193; on transfected 293 cells; also called ECL2 chimera
Experimental: To epitope map fucosylated hu.Ab4.H12L3, the binding to chimeric forms of human CCR8 was analyzed by flow cytometry.

human CCR8 [3] = molecular target: T1, human CCR8; experiment: cell-based or functional assay; remark: listed apart in the source
hCCR8 D6A = molecular target: T3, hCCR8 D6A (human, UniProt P51685 1-355); experiment: flow cytometry, HEK293 transfected with hCCR8 D6A with C-terminal FLAG
T3 construct: alanine point mutant on transfected HEK 293 cells

V9A = molecular target: T4, V9A; experiment: flow cytometry, HEK293 transfected with hCCR8 V9A with C-terminal FLAG; sheet prints [huCCR8]=0.02 ug/ml
T4 construct: single alanine mutant of hCCR8; also called hCCR8 V9A
T4 receptor chain: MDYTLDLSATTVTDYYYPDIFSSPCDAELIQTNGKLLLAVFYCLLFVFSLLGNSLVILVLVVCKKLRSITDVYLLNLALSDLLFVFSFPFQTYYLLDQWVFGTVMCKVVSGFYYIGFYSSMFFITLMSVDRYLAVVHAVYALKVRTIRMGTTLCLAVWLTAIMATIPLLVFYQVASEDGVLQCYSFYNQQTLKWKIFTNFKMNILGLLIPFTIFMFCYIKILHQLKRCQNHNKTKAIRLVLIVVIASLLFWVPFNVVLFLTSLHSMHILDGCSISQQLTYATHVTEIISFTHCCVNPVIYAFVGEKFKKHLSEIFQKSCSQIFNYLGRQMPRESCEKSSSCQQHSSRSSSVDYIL

S8A = molecular target: T5, S8A; experiment: flow cytometry, HEK293 transfected with hCCR8 S8A with C-terminal FLAG; sheet prints [huCCR8]=0.02 ug/ml
T5 construct: single alanine mutant of hCCR8; also called hCCR8 S8A
T5 receptor chain: T4 receptor chain with S8A, A9V

hCCR8 D2A = molecular target: T6, hCCR8 D2A (human, UniProt P51685 1-355); experiment: flow cytometry, HEK293 transfected with hCCR8 D2A with C-terminal FLAG
T6 construct: alanine point mutant on transfected HEK 293 cells

hCCR8 Y3A = molecular target: T7, hCCR8 Y3A (human, UniProt P51685 1-355); experiment: flow cytometry, HEK293 transfected with hCCR8 Y3A with C-terminal FLAG
T7 construct: alanine point mutant on transfected HEK 293 cells
Experimental: FIGS. 16A-16B depict the epitope maps for hu.Ab5.H13L1 (FIG. 16A) and hu.Ab4.H12L3 (FIG. 16B) mAbs.
To epitope map fucosylated hu.Ab5.H13L1, the binding to alanine point mutations in human CCR8 was analyzed by flow cytometry.

L7A = molecular target: T8, L7A; experiment: flow cytometry, HEK293 transfected with hCCR8 L7A with C-terminal FLAG; sheet prints [huCCR8]=0.02 ug/ml
T8 construct: single alanine mutant of hCCR8; also called hCCR8 L7A
T8 receptor chain: T4 receptor chain with L7A, A9V

Y16A = molecular target: T9, Y16A; experiment: flow cytometry, HEK293 transfected with hCCR8 Y16A with C-terminal FLAG; sheet prints [huCCR8]=0.02 ug/ml
T9 construct: single alanine mutant of hCCR8; also called hCCR8 Y16A
T9 receptor chain: T4 receptor chain with A9V, Y16A

P24A = molecular target: T10, P24A; experiment: flow cytometry, HEK293 transfected with hCCR8 P24A with C-terminal FLAG; sheet prints [huCCR8]=0.02 ug/ml
T10 construct: single alanine mutant of hCCR8; also called hCCR8 P24A
T10 receptor chain: T4 receptor chain with A9V, P24A

B1: hu.Ab4.H1L1 (antibody, human IgG1, kappa)
heavy: not shown
light: DYQMTQSPSSLSASVGDRVTITCQASQSISSYLSWYQQKPGKRPKLLIYKASTLASGVPSRFSGSGSGTDFTLTISSLQPEDFATYYCQQGYTSSNIDNIFGGGTKVEIKRTVAAPSVFIFPPSDEQLKSGTASVVCLLNNFYPREAKVQWKVDNALQSGNSQESVTEQDSKDSTYSLSSTLTLSKADYEKHKVYACEVTHQGLSSPVTKSFNRGEC
notes: also called hu.Ab4.H1Ll
For B1, the “CCL1 blocking potency IC50, Ca2+ influx” value (human CCR8 [1]) was 57.9 nM.

B2: hu.Ab4.H12L3 (antibody, human IgG1, kappa)
heavy: not shown
light: B1 light with R43A
notes: fucosylated human IgG1; also called huCCR8-Ab4.H12L3.hIgG1; Ab4 variant
With B2 the binding result [2] was “no binding” and the “Ligand Blocking Activity IC50, Ca2+ influx” value (human CCR8 [3]) was 57.9 nM.

B3: hu.Ab5.H13L1 (antibody, human IgG1, kappa)
heavy: not shown
light: DIQVTQSPSSLSASVGDRVTITCQASENIANALAWYQQKPGKPPKFLIYGASNLASGVPSRFSGSGSGTDFTFTISSLQPEDIATYYCQQAYYGNSFVEGTFGGGTKVEIKRTVAAPSVFIFPPSDEQLKSGTASVVCLLNNFYPREAKVQWKVDNALQSGNSQESVTEQDSKDSTYSLSSTLTLSKADYEKHKVYACEVTHQGLSSPVTKSFNRGEC
notes: fucosylated human IgG1; also called Ab5 variant
B3: no binding (tested: 0.02 ug/ml) (hCCR8 D6A); binds (V9A); binds (S8A). B3: no binding (tested: 0.02 ug/ml) (hCCR8 D2A); no binding (tested: 0.02 ug/ml) (hCCR8 Y3A); binds (L7A). B3: binds (Y16A); binds (P24A).
